US7887851B2, “Aromatase activator” (Kao Corporation, priority 2004, dated 2011)

Legend:
[1] = test system: transcription control region for exon 1b of human aromatase gene; experiment: Luciferase reporter assay, Ex1b-luc in HepG2 cell (expression of exon 1b of aromatase gene); type: cell-based; details: 20 hours
Method: The region containing transcription control region for exon 1b of human aromatase gene and a part of the exon 1b was amplified by PCR from genomic DNA extracted from human normal keratinocyte by using the following primers: […]
The resulting PCR product was treated with restriction enzymes SpeI and EcoRI, and incorporated in SpeI site and EcoRI site in SeaPansy null Control Vector (Toyo Ink Mfg. Co., Ltd.) to produce Ex1b-luc plasmid. This plasmid was used in the luciferase assay as will be described below.
Immortalized human hepatoma-derived cell (HepG2 cell) […]
The transfected cells were cultivated overnight, and plant extract prepared in Production Example 1, Table 2, or yeast extract (“YeastLiquid B”, Ichimaru Pharcos Co Ltd.), silk protein extract (“Silkgen G Soluble KE”, Ichimaru Pharcos Co Ltd.), milk protein (“Bioderma SX-14” Ichimaru Pharcos Co Ltd.), “lactoferrin S FREE”, Ichimaru Pharcos Co Ltd.), natto extract (“Soybean polymer F B-20”, Ichimaru Pharcos Co Ltd.), or royal jelly (“royal jelly extract”, Ichimaru Pharcos Co Ltd.) was added (1% or 0.1%), and the cultivation was continued for another 20 hours. After adding 20 μL of alamarBlue (BIOSOURCE), fluorescence intensity (excitation light 544 nm, fluorescence 590 nm) was measured. Luciferase activity was also measured by using PicaGene Dual SeaPansy Luminescence kit (Nippon Gene). […]

HepG2 cell = experiment: alamarBlue fluorescence in Ex1b-luc transfected HepG2 cell; type: cell-based, human; details: 20 hours
Method: Immortalized human hepatoma-derived cell (HepG2 cell)
HepG2 cell was inoculated to 96 well culture plate at 30,000 cells per well, and Ex1b-luc was introduced using lipofectamine reagent (Invitrogen) according to the protocol described in the attached manual. The DNA was used at an amount of 0.1 μg per well. The same procedure was repeated for control without adding the DNA (2 wells).
The transfected cells were cultivated overnight, and plant extract prepared in Production Example 1, Table 2, or yeast extract (“YeastLiquid B”, Ichimaru Pharcos Co Ltd.), silk protein extract (“Silkgen G Soluble KE”, Ichimaru Pharcos Co Ltd.), milk protein (“Bioderma SX-14” Ichimaru Pharcos Co Ltd.), “lactoferrin S FREE”, Ichimaru Pharcos Co Ltd.), natto extract (“Soybean polymer F B-20”, Ichimaru Pharcos Co Ltd.), or royal jelly (“royal jelly extract”, Ichimaru Pharcos Co Ltd.) was added (1% or 0.1%), and the cultivation was continued for another 20 hours. After adding 20 μL of alamarBlue (BIOSOURCE), fluorescence intensity (excitation light 544 nm, fluorescence 590 nm) was measured. Luciferase activity was also measured by using PicaGene Dual SeaPansy Luminescence kit (Nippon Gene). The cells were lysed by adding 25 μL per well of the lysis buffer that had been diluted 5× lysis buffer to 1× concentration.

B1: Lactoferrin: milk protein; commercial product "Lactoferrin S FREE" (Ichimaru Pharcos) (protein, UniProt P24627 20-708, looked up)
Lactotransferrin: APRKNVRWCTISQPEWFKCRRWQWRMKKLGAPSITCVRRAFALECIRAIAEKKADAVTLDGGMVFEAGRDPYKLRPVAAEIYGTKESPQTHYYAVAVVKKGSNFQLDQLQGRKSCHTGLGRSAGWIIPMGILRPYLSWTESLEPLQGAVAKFFSASCVPCIDRQAYPNLCQLCKGEGENQCACSSREPYFGYSGAFKCLQDGAGDVAFVKETTVFENLPEKADRDQYELLCLNNSRAPVDAFKECHLAQVPSHAVVARSVDGKEDLIWKLLSKAQEKFGKNKSRSFQLFGSPPGQRDLLFKDSALGFLRIPSKVDSALYLGSRYLTTLKNLRETAEEVKARYTRVVWCAVGPEEQKKCQQWSQQSGQNVTCATASTTDDCIVLVLKGEADALNLDGGYIYTAGKCGLVPVLAENRKSSKHSSLDCVLRPTEGYLAVAVVKKANEGLTWNSLKDKKSCHTAVDRTAGWNIPMGLIVNQTGSCAFDEFFSQSCAPGADPKSRLCALCAGDDQGLDKCVPNSKEKYYGYTGAFRCLAEDVGDVAFVKNDTVWENTNGESTADWAKNLNREDFRLLCLDGTRKPVTEAQSCHLAVAPNHAVVSRSDRAAHVKQVLLHQQALFGKNGKNCPDKFCLFKSETKNLLFNDNTECLAKLGGRPTYEEYLGTEYVTAIANLKKCSTSPLLEACAFLTR
Q: For B1, which Luciferase activity ([1]; added at 0.1%) is on record?
A: 155.2%

Q: What about the Luciferase activity ([1]; added at 1%) of the same molecule?
A: 181.5%

Q: What about the AlamarBlue activity (HepG2 cell; added at 0.1%) of the same molecule?
A: 135.9%

Q: What about the AlamarBlue activity (HepG2 cell; added at 1%) of the same molecule?
A: 138.2%
